Molecular target: soluble human FcRn (human) (UniProt P55899)
Assay: SPR
Conditions: natural protein; remark: other sources report otherwise

Chain of UniProt P55899 (P55899 24-297, chain 1 of 2): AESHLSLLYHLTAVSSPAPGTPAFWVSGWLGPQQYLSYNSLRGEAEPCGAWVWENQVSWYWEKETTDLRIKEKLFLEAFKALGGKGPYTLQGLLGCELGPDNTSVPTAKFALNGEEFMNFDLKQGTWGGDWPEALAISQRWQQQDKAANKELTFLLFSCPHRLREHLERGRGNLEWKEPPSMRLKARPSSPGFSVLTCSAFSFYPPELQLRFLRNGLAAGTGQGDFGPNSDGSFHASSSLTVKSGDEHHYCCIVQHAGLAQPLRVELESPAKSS
Chain of UniProt P55899 (partner, as listed by the source, chain 2 of 2): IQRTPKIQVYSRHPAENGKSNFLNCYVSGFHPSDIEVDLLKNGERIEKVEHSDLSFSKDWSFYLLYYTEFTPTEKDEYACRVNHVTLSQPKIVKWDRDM

Recombumin-NHBn34 (from UniProt P02768 25-609)
Kd: 13.2 µM

Source: publication PMC5799870
